Measurements from the supplement of paper PMC10126150.
± gives the standard deviation of the averaged measurements.

Test system: ATP
Experiment: switch fluorescence ratio, 500 uM ATP over buffer (Cy3 cluster intensity, sum of 5 cycles each) (fold (ratio)); higher = stronger signal-on switching upon ATP binding; sequences stand for … in TCGTCGGCAGCGTCAGATGTGTATAAGAGACAGTTTTTTTTTTTTTTTTTTTTTTTTT…TC
Details: aptamer strand: ATP DNA aptamer (quencher-CACCTGGGGGAGTATTGCGGAGGAAGG + anchor), 100 nM annealed; ATP concentration: 500 uM
How it was run: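 After annealing to 100 nM quencher-labelled ATP aptamer, Cy3-labelled switching-strand clusters on a modified Illumina MiSeq flow-cell were imaged in selection buffer. A second image followed after 15 min with 500 uM ATP at 22 °C, and five such buffer/ATP cycles were done, each separated by NaOH stripping and re-annealing. The fluorescence ratio, averaged per switch-domain sequence, is summed target-cycle over summed buffer-cycle Cy3 intensity per cluster, with clusters outside 100-1000 RFU excluded.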
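Note: ATP exposure 15 min at 22 °C before imaging.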

Row | Sequence | switch fluorescence ratio
1 | AAGGTTCTGA | 0.981 ± 0.016
2 | GAGTAGTATA | 0.992 ± 0.049
3 | GAATATGGGT | 0.995 ± 0.015
4 | ATCTTTGGTG | 1.03 ± 0.022
5 | TTAATTGATG | 1.01 ± 0.014
6 | GACAAAGGAC | 1.47 ± 0.09
7 | GTAAAAGCGG | 0.9788 ± 0.0082
8 | CGTCGCTGGG | 1.0111 ± 0.00071
9 | GCGTTTGTGC | 1.007 ± 0.01
10 | CTGGGTTTGT | 0.981 ± 0.016
11 | GGGTATGTTG | 0.978 ± 0.032
12 | TCAGTCTTTT | 0.998 ± 0.016
13 | GGCTGTGTTT | 0.981 ± 0.028
14 | CGCTGACAAG | 0.9916 ± 0.0099
15 | CGGCTGCGGG | 0.978 ± 0.022
16 | CTAATGGGTT | 0.98 ± 0.037
17 | GCGTATTGCT | 0.993 ± 0.016
18 | TTTCCCTTCT | 1.05 ± 0.06
19 | GGTCGTAGGG | 1.01 ± 0.016
20 | TTGGTTCGGA | 0.993 ± 0.015
21 | TAACCCGGGC | 1.03 ± 0.066
22 | AAAGATCGGA | 0.983 ± 0.038
23 | AGTGGCTTTG | 0.986 ± 0.019

Row | Sequence | switch fluorescence ratio
24 | TGGGTCGTGC | 0.99 ± 0.011
25 | TGAGTTCGGC | 1.03 ± 0.015
26 | TTGTGGGGAA | 1.12 ± 0.2
27 | GTCGTAAGTT | 1.01 ± 0.024
28 | CTTATGATGG | 0.987 ± 0.01
29 | CGCGGGAGAG | 1.02 ± 0.04
30 | TTAATTTACA | 1.09 ± 0.044
31 | TTCATGATTG | 0.999 ± 0.011
32 | ACCGGCACAT | 1.273 ± 0.0092
33 | CAGGCTGGGC | 0.9862 ± 0.008
34 | TCGTTGGTTG | 1.02 ± 0.051
35 | TGCATTCAGT | 0.99 ± 0.048
36 | AGACGGATGC | 1.05 ± 0.019
37 | TCGTTTACGC | 1.02 ± 0.08
38 | TTTGTTCTT | 1 ± 0.014
39 | TTATTAGACG | 0.976 ± 0.059
40 | AACATTGTTT | 1.01 ± 0.016
41 | ATGTGCCTGT | 0.9799 ± 0.0065
42 | ACGCCCTGGC | 1.04 ± 0.045
43 | CCAATTTGAA | 0.9913 ± 0.0081
44 | GTTCTTTGGG | 0.995 ± 0.013
45 | AGCGAGGTCT | 0.977 ± 0.027
46 | CAATAAAATC | 0.9924 ± 0.0019

Row | Sequence | switch fluorescence ratio
47 | GTAATGGATC | 0.986 ± 0.042
48 | TCGTTTCGCA | 1.11 ± 0.023
49 | TTACTATTTG | 0.961 ± 0.052
50 | GGGAGGTTGC | 1.09 ± 0.23
51 | ACGCGTCGGC | 1.06 ± 0.013
52 | ATCAATCCTT | 1.03 ± 0.029
53 | GACCTGTTTG | 0.987 ± 0.017
54 | ACGCCCACGT | 1.22 ± 0.038
55 | CATTTGGGAC | 1.02 ± 0.047
56 | CGGGGAGATC | 1.03 ± 0.062
57 | TTATTGACGA | 0.992 ± 0.021
58 | TTCCGGCACT | 1.09 ± 0.029
59 | GTGTTGTATT | 0.988 ± 0.015
60 | TACCAGGGAT | 1.1 ± 0.14
61 | AAATGTGAAT | 1 ± 0.029
62 | GTTGACAGCT | 1 ± 0.015
63 | TATTGTTATG | 1 ± 0.028
64 | TTAACGGTTT | 0.988 ± 0.013
65 | ATGGGGGCCT | 1.02 ± 0.048
66 | GAGTTATCG | 1.01 ± 0.018
67 | AGATATTTGG | 0.994 ± 0.018
68 | AACCTTAGTC | 1.1 ± 0.045
69 | TATGATTTGT | 1 ± 0.019

Row | Sequence | switch fluorescence ratio
70 | CGCAGGGAGT | 1.041 ± 0.01
71 | TGCAGGGGTA | 1.12 ± 0.2
72 | ATATGCGGGC | 1.02 ± 0.05
73 | CGGGGCGGGG | 0.985 ± 0.012
74 | TTGAAAGGTG | 1.29 ± 0.24
75 | CAGATTCGAG | 1.008 ± 0.01
76 | TTGATGAACA | 1 ± 0.024
77 | CTGGAGGATA | 1.12 ± 0.014
78 | GAGTGAGGCA | 0.981 ± 0.02
79 | TTAGGCTTGT | 0.996 ± 0.02
80 | CGTGCCCGGA | 1.03 ± 0.032
81 | TGGGACTAGT | 1.02 ± 0.059
82 | AATCCTGTTT | 1.01 ± 0.067
83 | TTACTTTTTT | 1.02 ± 0.033
84 | TAGATATTTA | 1.01 ± 0.0087
85 | TTACTTTGAG | 1.02 ± 0.048
86 | AAACTGTACT | 1.425 ± 0.0099
87 | CCCGCTGCTT | 1.33 ± 0.021
88 | GTAGTTCGGG | 0.997 ± 0.036
89 | AGTGTTGGG | 0.9768 ± 0.0046
90 | CGCATATGGC | 2.459 ± 0.016
91 | TGTTTTGGGA | 0.997 ± 0.021
92 | ATTGGGGCGT | 0.977 ± 0.016

Row | Sequence | switch fluorescence ratio
93 | ATTGGATAAT | 0.9967 ± 0.0091
94 | TACTTATCTG | 1.01 ± 0.019
95 | TGATGAAATT | 1.02 ± 0.036
96 | CGGAGGGGCG | 0.963 ± 0.06
97 | TCCGGTTGTC | 1.11 ± 0.036
98 | TGCAATATTT | 1.31 ± 0.02
99 | TTTCGCCATA | 2.39 ± 2
100 | AAGACGAGTT | 0.9962 ± 0.0022
101 | CTACGGGATT | 1.33 ± 0.43
102 | TACGATTGGA | 1.034 ± 0.0011
103 | ACTTGAGGGA | 0.9743 ± 0.0071
104 | AAACAGAATG | 0.975 ± 0.014
105 | TGCTTTTCTT | 0.996 ± 0.018
106 | CGTTTCACTA | 0.9736 ± 0.0019
107 | GGACTATGGT | 0.981 ± 0.014
108 | ACAACAGCAC | 1.18 ± 0.03
109 | CCGGGGTGGG | 0.9964 ± 0.0055
110 | CAATAAGGGG | 1.04 ± 0.1
111 | GTGGGTAGAG | 1 ± 0.057
112 | GTGTGGGTAT | 0.985 ± 0.016
113 | GCGCTACTAG | 1.02 ± 0.021
114 | TATTACGGCG | 1.02 ± 0.03
115 | GTGGGTAGTT | 0.99 ± 0.076

Row | Sequence | switch fluorescence ratio
116 | TAGTTGTAGG | 1.04 ± 0.051
117 | GATTTTAGTA | 1.01 ± 0.033
118 | AACGAGGAGT | 1.01 ± 0.0058
119 | GTTCTTTGTG | 1 ± 0.012
120 | TTATTAATCG | 0.963 ± 0.081
121 | TTTAGCTTTT | 1.04 ± 0.01
122 | TTTTTTCGTC | 1.02 ± 0.011
123 | GGGGGGCTAG | 1 ± 0.058
124 | AATGAAGTCC | 1.054 ± 0.0038
125 | GACGTTACCA | 1.61 ± 0.063
126 | ATTTTTTGAG | 1 ± 0.034
127 | CGTCATATTA | 1.008 ± 0.0025
128 | CGAAGAACTA | 1.023 ± 0.0028
129 | ACGGGAGGGG | 1.04 ± 0.048
130 | GGGCTGAAGG | 1.004 ± 0.01
131 | TCCTCGAGTA | 1.27 ± 0.027
132 | AAGGTCCATG | 0.9631 ± 0.0013
133 | AGCTGCTACG | 0.996 ± 0.027
134 | TTGGCATCCT | 1.0176 ± 0.00051
135 | GATCAAGGGA | 1.03 ± 0.052
136 | GGAAATATAG | 0.989 ± 0.012
137 | TAAAGTAGTT | 1.01 ± 0.044
138 | TCCAGATGGA | 0.977 ± 0.037

Row | Sequence | switch fluorescence ratio
139 | ATACCGAGTG | 0.991 ± 0.029
140 | GAATGGTGGG | 0.988 ± 0.019
141 | TAGTGTTGTG | 0.971 ± 0.055
142 | AGTTGGCTTG | 1.03 ± 0.03
143 | CTGTGCGACA | 1.06 ± 0.053
144 | TTTGACGGGA | 1.01 ± 0.012
145 | TTGTGGGGAG | 0.97 ± 0.024
146 | CAAGATTCGG | 0.986 ± 0.018
147 | GTTGGTTGGG | 0.975 ± 0.023
148 | AATTTCGCAA | 3.4 ± 1.3
149 | CAGAGAGCGG | 0.9815 ± 0.0031
150 | ACTTTCACGG | 1.32 ± 0.044
151 | CCGTAATTGA | 2.75 ± 0.16
152 | AAATTCGTAT | 0.9976 ± 0.0068
153 | GATATATTGT | 0.993 ± 0.035
154 | GTGGAGGGGC | 0.958 ± 0.081
155 | CTATACGGGG | 0.976 ± 0.025
156 | GCACCTGGAT | 1.01 ± 0.027
157 | GTTTGTGCAT | 1.025 ± 0.0083
